According to paper PMC6703867 (Science Advances, 2019):

Molecular target: T1, MBP-AtWRKY20 fusion protein (Arabidopsis thaliana, UniProt Q93WV0 1-557)
T1 sequence (looked up): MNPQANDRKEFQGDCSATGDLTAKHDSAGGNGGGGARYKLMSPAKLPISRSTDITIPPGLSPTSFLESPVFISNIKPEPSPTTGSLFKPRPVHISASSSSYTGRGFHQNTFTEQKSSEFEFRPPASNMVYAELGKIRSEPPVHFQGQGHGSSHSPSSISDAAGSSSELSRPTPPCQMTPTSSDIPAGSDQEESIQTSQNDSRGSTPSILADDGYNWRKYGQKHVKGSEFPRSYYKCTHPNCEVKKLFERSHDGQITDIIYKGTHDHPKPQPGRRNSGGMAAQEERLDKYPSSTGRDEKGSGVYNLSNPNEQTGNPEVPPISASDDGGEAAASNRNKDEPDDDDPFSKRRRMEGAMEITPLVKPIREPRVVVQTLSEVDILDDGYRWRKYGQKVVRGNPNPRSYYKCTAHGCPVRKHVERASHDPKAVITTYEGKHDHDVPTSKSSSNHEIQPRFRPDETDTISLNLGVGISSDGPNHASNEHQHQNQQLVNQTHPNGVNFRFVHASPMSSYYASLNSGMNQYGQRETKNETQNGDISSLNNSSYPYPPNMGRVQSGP
Assay: pull-down

binding result: binds
B1: GST-AtORA59 (natural protein)
chain: not shown
